Here are results for two substances from patent US20190240316A1.

The target of test [1] is RSV strain A2 F protein, pre-fusion-stabilized DS-Cav1 (human respiratory syncytial virus subgroup A strain A2) (UniProt P03420). Nature of the test: ELISA on coated antigen. Background: ELISA stands for enzyme-linked immunosorbent assay.
The target of test [2] is RSV strain A2 F protein, pre-fusion-stabilized SC-TM (human respiratory syncytial virus strain A2) (UniProt P03420). Nature of the test: ELISA on coated antigen.

Usually EC50 stands for the concentration needed to bring the measured effect to its halfway point. The low end stands for higher potency in that assay, the high end for lower potency in that assay.

Consider motavizumab (antibody), for which the EC50 in test [1] came to 0.037 µg/mL; in test [2] it was 0.028 µg/mL.

As for mAb D25 (antibody), the EC50 in test [1] worked out at 0.089 µg/mL.
